T1: FcγRIIa H (human, UniProt P12318 34-217)
T1 construct: extracellular domain; also called FcgRIIa H type; 2aH; not shown: His tag at the C terminus
T1 sequence (looked up): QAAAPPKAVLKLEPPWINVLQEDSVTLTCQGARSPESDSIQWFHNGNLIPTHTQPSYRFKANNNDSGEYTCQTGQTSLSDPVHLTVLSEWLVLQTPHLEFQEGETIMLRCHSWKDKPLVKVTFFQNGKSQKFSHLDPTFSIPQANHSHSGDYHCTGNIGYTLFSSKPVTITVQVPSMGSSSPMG

B1: GpH7-B3 variant I332_02A/GpL16-k0 (antibody, human IgG1, kappa)
heavy: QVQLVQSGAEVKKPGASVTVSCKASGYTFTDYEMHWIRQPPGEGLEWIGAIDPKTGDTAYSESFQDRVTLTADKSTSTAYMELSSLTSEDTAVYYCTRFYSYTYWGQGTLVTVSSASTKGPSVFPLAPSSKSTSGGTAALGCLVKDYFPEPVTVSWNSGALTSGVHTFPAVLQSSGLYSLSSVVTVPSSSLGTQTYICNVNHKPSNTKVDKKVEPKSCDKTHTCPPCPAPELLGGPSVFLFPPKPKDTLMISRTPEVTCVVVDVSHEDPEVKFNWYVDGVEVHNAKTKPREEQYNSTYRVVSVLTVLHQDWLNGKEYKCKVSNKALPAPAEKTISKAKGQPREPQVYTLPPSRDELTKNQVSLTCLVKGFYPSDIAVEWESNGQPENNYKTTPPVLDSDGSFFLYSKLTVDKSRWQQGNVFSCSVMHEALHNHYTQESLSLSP
light: DIVMTQSPLSLPVTPGEPASISCQASESLVHSNRNTYLHWYLQKPGQSPQLLIYKVSNRFSGVPDRFSGSGSGTDFTLKISRVEAEDVGVYYCSQNTHVPPTFGQGTKVEIERTVAAPSVFIFPPSDEQLKSGTASVVCLLNNFYPREAKVQWKVDNALQSGNSQESVTEQDSKDSTYSLSSTLTLSKADYEKHKVYACEVTHQGLSSPVTKSFNRGEC
notes: also called Ho Ab I332_02A
B2: GpH7-B3 variant G236_03V/GpL16-k0 (antibody, human IgG1, kappa)
heavy: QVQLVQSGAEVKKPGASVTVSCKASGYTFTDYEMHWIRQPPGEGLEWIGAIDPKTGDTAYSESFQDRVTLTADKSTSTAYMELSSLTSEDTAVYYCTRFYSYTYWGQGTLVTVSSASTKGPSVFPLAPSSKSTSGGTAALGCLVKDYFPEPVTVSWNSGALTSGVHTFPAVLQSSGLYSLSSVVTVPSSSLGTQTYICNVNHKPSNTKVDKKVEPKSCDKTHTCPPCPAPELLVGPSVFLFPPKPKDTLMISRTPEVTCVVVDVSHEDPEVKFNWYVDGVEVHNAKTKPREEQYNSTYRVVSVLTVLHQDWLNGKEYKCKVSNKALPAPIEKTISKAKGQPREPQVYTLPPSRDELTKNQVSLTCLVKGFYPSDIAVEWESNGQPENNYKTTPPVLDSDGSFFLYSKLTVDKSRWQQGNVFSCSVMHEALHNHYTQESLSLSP
light: B1 light
notes: also called Ho Ab G236_03V
B3: GpH7-B3 variant L328_02A/GpL16-k0 (antibody, human IgG1, kappa)
heavy: not shown
light: B1 light
notes: also called Ho Ab L328_02A
B4: GpH7-B3 variant K334_16H/GpL16-k0 (antibody, human IgG1, kappa)
heavy: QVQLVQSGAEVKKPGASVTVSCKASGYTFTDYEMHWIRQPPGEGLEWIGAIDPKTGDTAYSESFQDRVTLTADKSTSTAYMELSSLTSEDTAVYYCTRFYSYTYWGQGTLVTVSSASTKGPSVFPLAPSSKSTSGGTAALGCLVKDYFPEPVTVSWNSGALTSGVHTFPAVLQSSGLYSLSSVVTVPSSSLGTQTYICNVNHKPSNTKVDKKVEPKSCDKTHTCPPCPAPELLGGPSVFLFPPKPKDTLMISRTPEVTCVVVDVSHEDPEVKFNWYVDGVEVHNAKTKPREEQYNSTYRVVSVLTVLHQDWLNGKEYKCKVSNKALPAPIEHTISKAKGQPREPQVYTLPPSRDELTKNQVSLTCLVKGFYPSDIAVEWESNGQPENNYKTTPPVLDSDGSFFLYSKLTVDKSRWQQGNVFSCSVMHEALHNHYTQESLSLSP
light: B1 light
notes: also called Ho Ab K334_16H
B5: GpH7-B3 variant I332_13S/GpL16-k0 (antibody, human IgG1, kappa)
heavy: not shown
light: B1 light
notes: also called Ho Ab I332_13S
B6: GpH7-B3 variant S337_09D/GpL16-k0 (antibody, human IgG1, kappa)
heavy: not shown
light: B1 light
notes: also called Ho Ab S337_09D
B7: GpH7-B3 variant S324_09D/GpL16-k0 (antibody, human IgG1, kappa)
heavy: not shown
light: B1 light
notes: also called Ho Ab S324_09D
B8: GpH7-B3 variant S337_10E/GpL16-k0 (antibody, human IgG1, kappa)
heavy: not shown
light: B1 light
notes: also called Ho Ab S337_10E
B9: GpH7-B3 variant H268_18N/GpL16-k0 (antibody, human IgG1, kappa)
heavy: not shown
light: B1 light
notes: also called Ho Ab H268_18N
B10: GpH7-B3 variant K326_10E/GpL16-k0 (antibody, human IgG1, kappa)
heavy: not shown
light: B1 light
notes: also called Ho Ab K326_10E
B11: GpH7-B3 variant P271_01G/GpL16-k0 (antibody, human IgG1, kappa)
heavy: not shown
light: B1 light
notes: also called Ho Ab P271_01G
B12: GpH7-B3 variant S337_16H/GpL16-k0 (antibody, human IgG1, kappa)
heavy: not shown
light: B1 light
notes: also called Ho Ab S337_16H
B13: GpH7-B3 variant A330_12R/GpL16-k0 (antibody, human IgG1, kappa)
heavy: not shown
light: B1 light
notes: also called Ho Ab A330_12R
B14: GpH7-B3 variant S267_02A/GpL16-k0 (antibody, human IgG1, kappa)
heavy: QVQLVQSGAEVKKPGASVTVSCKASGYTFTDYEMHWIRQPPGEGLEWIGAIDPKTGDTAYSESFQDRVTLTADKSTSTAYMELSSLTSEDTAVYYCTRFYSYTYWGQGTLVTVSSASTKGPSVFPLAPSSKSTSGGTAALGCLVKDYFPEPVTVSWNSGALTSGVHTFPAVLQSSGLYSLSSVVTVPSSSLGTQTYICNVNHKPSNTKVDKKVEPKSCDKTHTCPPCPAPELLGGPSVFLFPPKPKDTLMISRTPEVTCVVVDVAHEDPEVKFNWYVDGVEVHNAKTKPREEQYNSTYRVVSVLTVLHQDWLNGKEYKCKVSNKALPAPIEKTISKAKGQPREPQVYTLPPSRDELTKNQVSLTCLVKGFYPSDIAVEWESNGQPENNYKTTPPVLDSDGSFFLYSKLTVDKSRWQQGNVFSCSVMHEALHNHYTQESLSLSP
light: B1 light
notes: also called Ho Ab S267_02A
B15: GpH7-B3 variant S324_02A/GpL16-k0 (antibody, human IgG1, kappa)
heavy: not shown
light: B1 light
notes: also called Ho Ab S324_02A
B16: GpH7-B3 variant H268_13S/GpL16-k0 (antibody, human IgG1, kappa)
heavy: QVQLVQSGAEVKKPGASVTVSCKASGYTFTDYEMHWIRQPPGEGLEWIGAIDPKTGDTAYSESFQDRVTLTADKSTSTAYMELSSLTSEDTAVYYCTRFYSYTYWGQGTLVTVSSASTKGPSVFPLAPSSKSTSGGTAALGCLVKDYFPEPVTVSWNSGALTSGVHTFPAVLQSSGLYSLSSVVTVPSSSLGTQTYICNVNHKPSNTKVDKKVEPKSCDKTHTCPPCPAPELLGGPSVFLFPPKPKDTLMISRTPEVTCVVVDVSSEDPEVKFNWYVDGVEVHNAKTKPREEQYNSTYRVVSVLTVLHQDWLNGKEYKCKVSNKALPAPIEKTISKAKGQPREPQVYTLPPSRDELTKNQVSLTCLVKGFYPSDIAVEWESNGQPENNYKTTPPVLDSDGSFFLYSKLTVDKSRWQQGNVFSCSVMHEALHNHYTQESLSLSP
light: B1 light
notes: also called Ho Ab H268_13S
B17: GpH7-B3 variant K326_19Q/GpL16-k0 (antibody, human IgG1, kappa)
heavy: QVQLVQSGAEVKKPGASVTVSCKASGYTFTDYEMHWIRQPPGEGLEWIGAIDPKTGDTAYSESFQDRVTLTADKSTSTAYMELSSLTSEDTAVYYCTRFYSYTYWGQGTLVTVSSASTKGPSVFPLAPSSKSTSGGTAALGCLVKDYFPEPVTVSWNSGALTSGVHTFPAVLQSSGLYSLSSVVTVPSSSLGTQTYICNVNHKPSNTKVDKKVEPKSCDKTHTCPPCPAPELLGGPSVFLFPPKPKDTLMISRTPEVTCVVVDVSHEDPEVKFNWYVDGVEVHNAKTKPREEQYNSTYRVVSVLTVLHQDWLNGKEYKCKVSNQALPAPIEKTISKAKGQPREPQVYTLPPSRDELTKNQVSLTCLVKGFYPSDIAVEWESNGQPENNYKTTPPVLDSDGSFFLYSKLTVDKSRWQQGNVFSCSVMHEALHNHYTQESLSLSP
light: B1 light
notes: also called Ho Ab K326_19Q
B18: GpH7-B3 variant T335_07I/GpL16-k0 (antibody, human IgG1, kappa)
heavy: not shown
light: B1 light
notes: also called Ho Ab T335_07I
B19: GpH7-B3 variant Q295_07I/GpL16-k0 (antibody, human IgG1, kappa)
heavy: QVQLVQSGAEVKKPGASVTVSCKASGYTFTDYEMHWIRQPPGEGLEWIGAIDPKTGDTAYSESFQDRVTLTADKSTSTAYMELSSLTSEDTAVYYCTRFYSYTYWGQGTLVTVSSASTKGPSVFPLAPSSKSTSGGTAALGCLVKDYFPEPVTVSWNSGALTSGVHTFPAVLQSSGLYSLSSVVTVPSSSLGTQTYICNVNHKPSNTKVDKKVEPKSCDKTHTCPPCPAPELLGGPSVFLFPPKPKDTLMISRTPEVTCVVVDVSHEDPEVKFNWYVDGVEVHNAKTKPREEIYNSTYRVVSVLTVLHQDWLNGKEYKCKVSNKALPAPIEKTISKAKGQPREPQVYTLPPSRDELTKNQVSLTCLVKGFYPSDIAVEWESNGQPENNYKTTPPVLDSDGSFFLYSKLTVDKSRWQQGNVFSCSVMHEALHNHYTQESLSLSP
light: B1 light
notes: also called Ho Ab Q295_07I
B20: GpH7-B3 variant K326_06M/GpL16-k0 (antibody, human IgG1, kappa)
heavy: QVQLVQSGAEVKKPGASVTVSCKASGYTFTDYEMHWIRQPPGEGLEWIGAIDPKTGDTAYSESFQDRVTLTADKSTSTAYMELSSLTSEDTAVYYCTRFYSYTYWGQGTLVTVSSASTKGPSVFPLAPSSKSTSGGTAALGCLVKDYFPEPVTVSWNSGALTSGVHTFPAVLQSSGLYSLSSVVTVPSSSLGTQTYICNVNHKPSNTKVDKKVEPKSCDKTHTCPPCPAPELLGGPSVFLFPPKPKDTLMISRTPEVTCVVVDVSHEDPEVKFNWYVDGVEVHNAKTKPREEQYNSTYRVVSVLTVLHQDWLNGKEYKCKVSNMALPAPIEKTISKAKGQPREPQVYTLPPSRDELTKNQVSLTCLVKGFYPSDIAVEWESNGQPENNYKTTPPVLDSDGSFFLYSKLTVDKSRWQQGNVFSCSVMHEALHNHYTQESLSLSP
light: B1 light
notes: also called Ho Ab K326_06M
B21: GpH7-B3 variant K334_08L/GpL16-k0 (antibody, human IgG1, kappa)
heavy: not shown
light: B1 light
notes: also called Ho Ab K334_08L
B22: GpH7-B3 variant I332_18N/GpL16-k0 (antibody, human IgG1, kappa)
heavy: not shown
light: B1 light
notes: also called Ho Ab I332_18N
B23: GpH7-B3 variant G236_10E/GpL16-k0 (antibody, human IgG1, kappa)
heavy: not shown
light: B1 light
notes: also called Ho Ab G236_10E
B24: GpH7-B3 variant K334_07I/GpL16-k0 (antibody, human IgG1, kappa)
heavy: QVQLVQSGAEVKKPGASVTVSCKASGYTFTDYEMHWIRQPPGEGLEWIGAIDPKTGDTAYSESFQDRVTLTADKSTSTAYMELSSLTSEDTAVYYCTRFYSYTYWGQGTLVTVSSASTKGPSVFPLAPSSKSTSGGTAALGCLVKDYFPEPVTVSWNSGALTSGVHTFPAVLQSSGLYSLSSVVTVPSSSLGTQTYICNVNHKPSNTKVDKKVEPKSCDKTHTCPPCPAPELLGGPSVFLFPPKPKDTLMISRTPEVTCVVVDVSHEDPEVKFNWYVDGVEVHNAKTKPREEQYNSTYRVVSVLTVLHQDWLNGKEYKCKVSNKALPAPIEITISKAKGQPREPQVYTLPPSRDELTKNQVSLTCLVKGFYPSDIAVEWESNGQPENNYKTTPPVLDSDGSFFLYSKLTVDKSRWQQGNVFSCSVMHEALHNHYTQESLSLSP
light: B1 light
notes: also called Ho Ab K334_07I
B25: GpH7-B3 variant K326_09D/GpL16-k0 (antibody, human IgG1, kappa)
heavy: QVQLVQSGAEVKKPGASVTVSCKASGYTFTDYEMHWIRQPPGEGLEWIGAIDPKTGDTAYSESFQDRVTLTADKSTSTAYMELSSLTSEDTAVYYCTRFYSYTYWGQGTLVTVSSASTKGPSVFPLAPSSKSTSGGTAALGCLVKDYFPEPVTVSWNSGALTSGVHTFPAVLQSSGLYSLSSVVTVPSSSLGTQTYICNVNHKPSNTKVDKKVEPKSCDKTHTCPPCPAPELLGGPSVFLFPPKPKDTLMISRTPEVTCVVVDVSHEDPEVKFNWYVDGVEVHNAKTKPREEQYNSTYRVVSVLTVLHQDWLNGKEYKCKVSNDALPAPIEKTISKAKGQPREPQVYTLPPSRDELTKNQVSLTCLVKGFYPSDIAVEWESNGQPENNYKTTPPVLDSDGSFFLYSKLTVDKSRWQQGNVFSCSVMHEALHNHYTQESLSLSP
light: B1 light
notes: also called Ho Ab K326_09D
B26: GpH7-B3 variant I332_16H/GpL16-k0 (antibody, human IgG1, kappa)
heavy: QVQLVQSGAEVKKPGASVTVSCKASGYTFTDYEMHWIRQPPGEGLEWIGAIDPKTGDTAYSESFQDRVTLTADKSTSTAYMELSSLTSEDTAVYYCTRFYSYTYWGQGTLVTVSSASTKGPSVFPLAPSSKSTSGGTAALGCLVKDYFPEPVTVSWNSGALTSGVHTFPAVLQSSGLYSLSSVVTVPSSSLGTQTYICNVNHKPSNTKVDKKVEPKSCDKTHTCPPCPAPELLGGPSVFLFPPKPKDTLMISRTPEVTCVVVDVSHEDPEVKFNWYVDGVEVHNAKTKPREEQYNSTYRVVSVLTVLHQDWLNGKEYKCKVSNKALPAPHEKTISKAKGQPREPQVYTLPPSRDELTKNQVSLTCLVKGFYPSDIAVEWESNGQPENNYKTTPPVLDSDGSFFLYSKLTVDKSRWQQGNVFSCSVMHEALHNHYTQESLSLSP
light: B1 light
notes: also called Ho Ab I332_16H
B27: GpH7-B3 variant I336_06M/GpL16-k0 (antibody, human IgG1, kappa)
heavy: not shown
light: B1 light
notes: also called Ho Ab I336_06M

The target in the test is T1, FcγRIIa H. Briefly: SPR Biacore, relative binding.
For the molecule B1, the Ho/Con_2aH is 119 % of GpH7-B3/GpL16-k0 (=100).
With B2 the figure was 111 % of GpH7-B3/GpL16-k0 (=100).
On to B3, for which the Ho/Con_2aH is 134 % of GpH7-B3/GpL16-k0 (=100).
On to B4, for which the Ho/Con_2aH was 101 % of GpH7-B3/GpL16-k0 (=100).
For the molecule B5, the Ho/Con_2aH is 121 % of GpH7-B3/GpL16-k0 (=100).
As for B6, the Ho/Con_2aH was 107 % of GpH7-B3/GpL16-k0 (=100).
Consider B7, for which the Ho/Con_2aH was 113 % of GpH7-B3/GpL16-k0 (=100).
In the case of B8, the Ho/Con_2aH was 101 % of GpH7-B3/GpL16-k0 (=100).
As to B9, the Ho/Con_2aH is 110 % of GpH7-B3/GpL16-k0 (=100).
Take B10: the Ho/Con_2aH is 101 % of GpH7-B3/GpL16-k0 (=100).
B11: the Ho/Con_2aH is 110 % of GpH7-B3/GpL16-k0 (=100).
On to B12, for which the Ho/Con_2aH was 102 % of GpH7-B3/GpL16-k0 (=100).
Regarding B13, the Ho/Con_2aH is 110 % of GpH7-B3/GpL16-k0 (=100).
With B14 the figure was 120 % of GpH7-B3/GpL16-k0 (=100).
Turning to B15, the Ho/Con_2aH is 102 % of GpH7-B3/GpL16-k0 (=100).
As for B16, the Ho/Con_2aH was 114 % of GpH7-B3/GpL16-k0 (=100).
As for B17, the Ho/Con_2aH was 100 % of GpH7-B3/GpL16-k0 (=100).
Regarding B18, the Ho/Con_2aH is 105 % of GpH7-B3/GpL16-k0 (=100).
B19: the Ho/Con_2aH is 108 % of GpH7-B3/GpL16-k0 (=100).
With B20, the Ho/Con_2aH is 101 % of GpH7-B3/GpL16-k0 (=100).
With B21, the Ho/Con_2aH was 103 % of GpH7-B3/GpL16-k0 (=100).
As to B22, the Ho/Con_2aH is 118 % of GpH7-B3/GpL16-k0 (=100).
The value for B23 was 122 % of GpH7-B3/GpL16-k0 (=100); that for B24 was 116 % of GpH7-B3/GpL16-k0 (=100).
With B25 the figure was 113 % of GpH7-B3/GpL16-k0 (=100); with B26, 119 % of GpH7-B3/GpL16-k0 (=100); with B27, 100 % of GpH7-B3/GpL16-k0 (=100).

(Values after US20180155451A1 (published 2018).)
